The RNAGym collection of RNA variant scans (doi:10.1073/pnas.2313332121)

B1: TPR t1 (parent)
chain: GACCAAUCUGCCCUCAGAGCUCGAGAACAUCUUCGGAUGCAGAGGAGGCAGGCUUCGGUGGCGCGAUAGCGCCAACGUCCUCAACCUCCAAUGCAUCCCACCACAUGAUGAUGCCUGAAGAGCCUUGGUUUUUUG

Variants of: B1
Assay: polymerase ribozyme fitness, log enrichment relative to wild type (log ratio); higher = more active; in vitro selection for triplet polymerase activity
Method in brief: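 For each subunit of a heterodimeric triplet polymerase ribozyme, a mutant library was built by PCR and transcribed, then taken through a single in vitro selection round in triplicate. Selection involved annealing to a biotinylated primer, the partner subunit and triplets, incubation frozen at −7 °C, gel excision of extended constructs, capture on streptavidin beads and RT-PCR. Genotypes were retained after Illumina sequencing of inputs and outputs only with ≥10 input reads and ≥1 read in each output. Fitness is defined as the logarithm of a genotype's enrichment relative to wild-type enrichment, using inverse-variance-weighted averages across replicates, with the logarithm taken to base 2.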

Variant	polymerase ribozyme fitness (log ratio)
A24U A41G A43C U96A C102U A111U	-6.49
A26U G45A U54A	-4.06
A27C C85U C123U	-3.3
A24G G128A U130G	-4.18
A27C U67G G107A U109A C123G C124G	-6.73
A26C C97U	-5.92
A26U G52A	-4.18
A27C G47A U54G G57U	-1.6
A26U U59A G63A	-5.57
A27U A29G G63C G127C	-6.04
A26G G42C U59C G113A	-5.32
A26G A46C G52C	-4.5
A26U C94U C123G U132C	-1.68
A27U C56U	-3.04
C28A A43U	-5.18
G25U C72U C88A U109C A119U C123U	-8.09
A27G G42A C73G	-5.22
G25A C31U G63U G77U G117A C124U	-7.34
G25U C56U C123G	-6.4
A24G G36U G93C U112A	-5.3
A27C C72A C79U G113U	-6.86

Variant	polymerase ribozyme fitness (log ratio)
G23U C64U	-4.56
A24U C124U	-5.45
A24U C124G	-5.19
A27G C56A C72U G120U	-2.12
A27C A95U C114U	-4.15
A27G C28U C56U U81A A83U A121C	-3.5
A26U C123G	-1.74
A26G C49U C64U U87A	-3.25
A27C U54A C64A G113A	-5.44
G25U G35A A41U U112G	-7.04
A24G C82G A84U U106C	-2.06
A24G C88U A95C C124A U133A	-0.316
G23U A90U	-6.86
A27C G47U C73U G77U C86G C123A U126A	-4.61
C28A G48U C53U G57C G60A U106C	-5.56
A27G C56U U96A U109G C115G C124U	-7.02
A26C U106A	-3.34
A24U G45A G60A C115U	-6.73
A27U A37G G48A C72G A83U U130A	-4.93
C28A C72A C123G U126C	-2
G23C C49G G51C G61U G117U G128C	-6.88

Variant	polymerase ribozyme fitness (log ratio)
A24U U116C G128U	-6.51
A27U C72U U87G	-3.11
A24G G61U	-1.44
G25U U33A A68U A111C G127C	-6.82
A26G U38A G39U	-4.5
A27C A74C	-3.6
A27G C88A	-2.13
A27G A41U	-2.67
A26G C56U	-1.28
A24U A27U C28U G36U A111U	-5.92
G23U G60U G65C C99G C123U	-7.81
A24G G63U	-3.19
G25A A26U A43G G61C U78A C102U G110C	-7.68
A24G U131A	-2.25
A27C C62A	-2.54
A27U G60U G63A U109A C124U	-6.47
G23A C72G	-4.87
G23A C72U	-5.21
A27U C72U U106G U129A G135U	-5.91
G23C G69A	-7.97
C28A G42A G77C G110U	-1.22

Variant	polymerase ribozyme fitness (log ratio)
A24U G39A	-7.92
A24G C88G C123A U129A	-4.43
A27G C64U	-2.01
A27U G60U G61C	-5.43
A24G G42U G45A C72G C88A A121G U125C	-2.21
A26G G63C	-1.65
A26G G48A C53G C89U A91C	-4.13
A27G C49U	-2.19
A27G C49G	-2.37
G25U G69U C102U A121U	-5.66
A26U A37U G52U A90U U112C	-6.53
A26G G45C A75U	-4.25
G25U C64G C94U C124G	-6.12
C28A G71C	-5.69
G23U C31G C102G C124A	-6.83
G25C G35A G44C C114G	-5.95
A27U C62U G117U C123G	-5.03
G25A C70A	-6.74
A26U G61C	-3.63
A24U G60A	-4.63
